Test results: PMC9162472, “Improved furfural tolerance in Escherichia coli mediated by heterologous NADH-dependent benzyl alcohol dehydrogenases” (Biochemical Journal, 2022)

Key:
Test in all cases: purified protein
Settings in all cases: 0.2 mM NADH, 50 mM potassium phosphate pH 7.2, 200 mM NaCl, 37 °C, error is 95% CI, kcat m^-1 [sic]
[1] = substrate: O=Cc1ccco1; format: biochemical, Acinetobacter calcoaceticus
[2] = substrate: O=Cc1ccccc1; format: biochemical, Acinetobacter calcoaceticus
[3] = substrate: O=Cc1ccc(CO)o1; format: biochemical, Acinetobacter calcoaceticus
[4] = substrate: O=Cc1ccco1; format: biochemical, Pseudomonas putida
[5] = substrate: O=Cc1ccccc1; format: biochemical, Pseudomonas putida
[6] = substrate: O=Cc1ccc(CO)o1; format: biochemical, Pseudomonas putida
[7] = substrate: O=Cc1ccco1; format: biochemical, Burkholderia ambifaria
[8] = substrate: O=Cc1ccccc1; format: biochemical, Burkholderia ambifaria
[9] = substrate: O=Cc1ccc(CO)o1; format: biochemical, Burkholderia ambifaria
[10] = substrate: CCCCCC=O; format: biochemical, Burkholderia ambifaria

B1: AcBAD (Acinetobacter calcoaceticus) (protein)
chain: MSELKDIIAAVTPCKGADFELQALKIRQPQGDEVLVKVVATGMCHTDLIVRDQYYPVPLPAVLGHEGSGIIEAIGPNVTELQVGDHVVLSYGYCGKCTQCNTGNPAYCSEFFGRNFSGADSEGNHALCTHDQGVVNDHFFAQSSFATYALSRENNTVKVTKDVPIELLGPLGCGIQTGAGACINALKVTPASSLVTWGAGAVGLSALLAAKVCGASIIIAVDIVESRLELAKQLGATHVINSKTQDPVAAIKEITDGGVNFALESTGRPEILKQGVDALGILGKIAVVGAPQLGTTAQFDVNDLLLGGKTILGVVEGSGSPKKFIPELVRLYQQGKFPFDQLVKFYAFDEINQAAIDSHKGITLKPIIKIA
With B1 the Km [1] was 359 ± 224 µM, the kcat [1] was 2.73 ± 0.467 s⁻¹ and the kcat/Km [1] was 8330 ± 3330 M⁻¹ s⁻¹. It also gave a Km [2] of 412 ± 251 µM, a kcat [2] of 6.57 ± 1.34 s⁻¹ and a kcat/Km [2] of 16700 ± 10000 M⁻¹ s⁻¹. It also gave a Km [3] of 294 ± 277 µM, a kcat [3] of 0.565 ± 0.146 s⁻¹ and a kcat/Km [3] of 1670 ± 1670 M⁻¹ s⁻¹.

B2: XylB (Pseudomonas putida) (protein)
chain: EIKAAIVRQKNGPFLLEHVALNEPAEDQVLVRLVATGLCHTDLVCRDQHYPVPLPMVFGHEGAGVVERVGSAVKKVQPGDHVVLTFYTCGSCDACLSGDPTSCANSFGPNFMGRSVTGECTIHDHQGAEVGASFFGQSSFATYALSYERNTVKVTKDVPLELLGPLGCGIQTGAGSVLNALNPPAGSSIAIFGAGAVGLSAVMAAVVAGCTKIIVVDVKENRLKLADELGATHVINAASSDPVEKIKEICAGGVPYVLETSGLPSVLQQAILSSAIGGEIGIVGAPPMGATIPVDINFLLFNRKLRGIVEGQSISDIFIPRLVELYRQGKFPFDKLLKFYSFDEINQAAEDSENGITLKPVLRIS
In the case of B2, the Km [4] is reported as 234 ± 153 µM, the kcat [4] is reported as 2.45 ± 0.467 s⁻¹ and the kcat/Km [4] is reported as 10000 ± 6670 M⁻¹ s⁻¹. It also gave a Km [5] of 21.2 ± 16.2 µM, a kcat [5] of 0.192 ± 0.0343 s⁻¹ and a kcat/Km [5] of 8330 ± 6670 M⁻¹ s⁻¹. It also gave a Km [6] of 461 ± 52.1 µM, a kcat [6] of 1.16 ± 0.0453 s⁻¹ and a kcat/Km [6] of 3330 ± 333 M⁻¹ s⁻¹.

B3: BaBAD (Burkholderia ambifaria MC40-6) (protein)
chain: MYTENDTRAVTAAVARAAGAPFSIEPARIRAPRGDEVLVRVVATGLCHTDLIVRDQYYPVPLPAVLGHEGAGVVEAVGPNVKTLAAGDHVVLTYGACGHCASCAGGHGAYCRQFFALNFGGADADGQTALRDAAGEPLHDHFFAQSSFASYALARENNAIKVPKEAPLELLGPLGCGIQTGAGAVINSLAVRTGSSFASFGAGAVGMSAVMAARIAGATTIIAVDIVPSRLALALELGATHAINSKEVDVVDAIREITGGGVDYALESTGLPAVLSQGIDALGSRGTMGVVGAPKLGTKAEFDVNSLLLGGHTIRGIVEGDSVPQTFIPQLVQLHLQGRFPFDRLVKFYPLEQINQAAADSSSGITLKPILRLPH
In the case of B3, the Km [7] is reported as 75.2 ± 62.2 µM, the kcat [7] is reported as 0.575 ± 0.112 s⁻¹ and the kcat/Km [7] is reported as 8330 ± 6670 M⁻¹ s⁻¹. The Km [8] was 78.3 ± 30 µM, the kcat [8] was 0.865 ± 0.0785 s⁻¹ and the kcat/Km [8] was 11700 ± 5000 M⁻¹ s⁻¹. It also gave a Km [9] of 377 ± 242 µM, a kcat [9] of 1.09 ± 0.192 s⁻¹ and a kcat/Km [9] of 3330 ± 1670 M⁻¹ s⁻¹. It also gave a Km [10] of 672 ± 374 µM, a kcat [10] of 0.758 ± 0.163 s⁻¹ and a kcat/Km [10] of 1170 ± 667 M⁻¹ s⁻¹.
